Laboratory results reported in WO2022194311A2.

How the values were obtained:
Assay in all cases: SPR (Biacore 8K), His-tagged FcRn captured by anti-His antibody on CM5 chip, pH 6.0
[1] = molecular target: rat FcRn (rat) (UniProt P13599)
[2] = molecular target: cynomolgus monkey FcRn (cynomolgus monkey) (UniProt Q8SPV9)
[3] = molecular target: human FcRn (human) (UniProt P55899)
Sequence of human FcRn (human) (P55899 24-297 limits assumed, form in doubt): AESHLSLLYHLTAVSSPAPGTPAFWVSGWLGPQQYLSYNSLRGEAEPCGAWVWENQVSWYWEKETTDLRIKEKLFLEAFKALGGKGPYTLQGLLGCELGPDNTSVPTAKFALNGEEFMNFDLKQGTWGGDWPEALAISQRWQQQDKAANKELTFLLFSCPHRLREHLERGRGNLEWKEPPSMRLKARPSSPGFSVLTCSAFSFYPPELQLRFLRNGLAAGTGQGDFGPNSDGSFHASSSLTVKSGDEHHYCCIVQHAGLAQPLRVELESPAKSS

Sequence of rat FcRn (rat) (P13599 23-298 limits assumed, form in doubt): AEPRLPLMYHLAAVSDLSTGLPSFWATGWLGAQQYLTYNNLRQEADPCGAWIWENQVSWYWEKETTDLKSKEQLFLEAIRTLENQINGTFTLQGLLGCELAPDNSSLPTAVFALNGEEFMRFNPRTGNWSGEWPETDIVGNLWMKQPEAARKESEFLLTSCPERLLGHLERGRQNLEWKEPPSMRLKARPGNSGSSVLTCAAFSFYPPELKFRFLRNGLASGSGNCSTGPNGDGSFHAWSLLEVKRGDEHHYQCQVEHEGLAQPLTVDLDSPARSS
Sequence of cynomolgus monkey FcRn (cynomolgus monkey) (Q8SPV9 24-297 limits assumed, form in doubt): as the sequence (P55899 24-297 limits assumed, form in doubt) above, with N39D, E44Q, G99S, S189G, S190N, L217M, S269T counted along it

Kd [1]: 10 nM
Kd [2]: 10 nM
Kd [3]: 10 nM
Substance: secukinumab (Cosentyx) (antibody)
